Values quoted from earlier work as cited in patent US20200069786A1, “COMPOSITION AND PROCESS FOR PREPARING VACCINE” (TREOS BIO ZRT., priority 2018, published 2020).
Where two headings read alike, the source gives them in different places.

Tested on: TSA
[1] = TSA expression rate in BLADDER cancer
[2] = TSA expression rate in Esophageal
[3] = TSA expression rate in GASTRIC cancer
[4] = TSA expression rate in HEAD and NECK
[5] = TSA expression rate in LEUKEMIAS
[6] = TSA expression rate in LYMPHOMAS
[7] = TSA expression rate in MELANOMA
[8] = TSA expression rate in PEDIATRIC
[9] = TSA expression rate in PROSTATE cancer
[10] = TSA expression rate in LUNG cancer
[11] = TSA expression rate in Cervical cancer

Row | Molecule | TSA Expression Rate (ER) (BRAIN) | TSA Expression Rate (ER) (BREAST) | TSA Expression Rate (ER) (HCC) | TSA Expression Rate (ER) (LUNG) | TSA Expression Rate (ER) (THYROID) | Expression Rate (ER) % [1] | Expression Rate (ER) % (TSA expression rate in CRC) | Expression Rate (ER) % [2] | Expression Rate (ER) % [3] | Expression Rate (ER) % [4] | Expression Rate (ER) % [5] | Expression Rate (ER) % [6] | Expression Rate (ER) % [7] | Expression Rate (ER) % [8] | Expression Rate (ER) % [9] | Expression Rate (ER) % (TSA expression rate in Kidney) | Expression Rate (ER) % [10] | TSA Expression Rate (ER) (OVARIAN) | TSA Expression Rate (ER) (PANCREATIC) | Expression Rate (ER) % [11]
1 | MAGE-C2 (protein, UniProt Q9UBF1 1-373, looked up) Melanoma-associated antigen C2: MPPVPGVPFRNVDNDSPTSVELEDWVDAQHPTDEEEEEASSASSTLYLVFSPSSFSTSSSLILGGPEEEEVPSGVIPNLTESIPSSPPQGPPQGPSQSPLSSCCSSFSWSSFSEESSSQKGEDTGTCQGLPDSESSFTYTLDEKVAELVEFLLLKYEAEEPVTEAEMLMIVIKYKDYFPVILKRAREFMELLFGLALIEVGPDHFCVFANTVGLTDEGSDDEGMPENSLLIIILSVIFIKGNCASEEVIWEVLNAVGVYAGREHFVYGEPRELLTKVWVQGHYLEYREVPHSSPPYYEFLWGPRAHSESIKKKVLEFLAKLNNTVPSSFPSWYKDALKDVEERVQATIDTADDATVMASESLSVMSSNVSFSE | 34% | 19% | 37% | 27% | 0% | 19% | 4% | 11% | 10% | 29% | 37% | 0% | 45% | 40% | 6% | – | – | – | – | –
2 | TDRD1 (protein, UniProt Q9BXT4 1-1180, looked up) Tudor domain-containing …: MSVKSPFNVMSRNNLEAPPCKMTEPFNFEKNENKLPPHESLRSPGTLPNHPNFRLKSSENGNKKNNFLLCEQTKQYLASQEDNSVSSNPNGINGEVVGSKGDRKKLPAGNSVSPPSAESNSPPKEVNIKPGNNVRPAKSKKLNKLVENSLSISNPGLFTSLGPPLRSTTCHRCGLFGSLRCSQCKQTYYCSTACQRRDWSAHSIVCRPVQPNFHKLENKSSIETKDVEVNNKSDCPLGVTKEIAIWAERIMFSDLRSLQLKKTMEIKGTVTEFKHPGDFYVQLYSSEVLEYMNQLSASLKETYANVHEKDYIPVKGEVCIAKYTVDQTWNRAIIQNVDVQQKKAHVLYIDYGNEEIIPLNRIYHLNRNIDLFPPCAIKCFVANVIPAEGNWSSDCIKATKPLLMEQYCSIKIVDILEEEVVTFAVEVELPNSGKLLDHVLIEMGYGLKPSGQDSKKENADQSDPEDVGKMTTENNIVVDKSDLIPKVLTLNVGDEFCGVVAHIQTPEDFFCQQLQSGRKLAELQASLSKYCDQLPPRSDFYPAIGDICCAQFSEDDQWYRASVLAYASEESVLVGYVDYGNFEILSLMRLCPIIPKLLELPMQAIKCVLAGVKPSLGIWTPEAICLMKKLVQNKIITVKVVDKLENSSLVELIDKSETPHVSVSKVLLDAGFAVGEQSMVTDKPSDVKETSVPLGVEGKVNPLEWTWVELGVDQTVDVVVCVIYSPGEFYCHVLKEDALKKLNDLNKSLAEHCQQKLPNGFKAEIGQPCCAFFAGDGSWYRALVKEILPNGHVKVHFVDYGNIEEVTADELRMISSTFLNLPFQGIRCQLADIQSRNKHWSEEAITRFQMCVAGIKLQARVVEVTENGIGVELTDLSTCYPRIISDVLIDEHLVLKSASPHKDLPNDRLVNKHELQVHVQGLQATSSAEQWKTIELPVDKTIQANVLEIISPNLFYALPKGMPENQEKLCMLTAELLEYCNAPKSRPPYRPRIGDACCAKYTSDDFWYRAVVLGTSDTDVEVLYADYGNIETLPLCRVQPITSSHLALPFQIIRCSLEGLMELNGSSSQLIIMLLKNFMLNQNVMLSVKGITKNVHTVSVEKCSENGTVDVADKLVTFGLAKNITPQRQSALNTEKMYRMNCCCTELQKQVEKHEHILLFLLNNSTNQNKFIEMKKLLKS | – | 38% | – | – | 0% | 29% | 0% | 10% | – | 22% | – | – | 0% | – | 47% | 0% | 5% | – | – | –
3 | FMR1NB (protein, UniProt Q8N0W7 1-255, looked up) FMR1 neighbor protein: MSSHRRKAKGRNRRSHRAMRVAHLELATYELAATESNPESSHPGYEAAMADRPQPGWRESLKMRVSKPFGMLMLSIWILLFVCYYLSYYLCSGSSYFVLANGHILPNSENAHGQSLEEDSALEALLNFFFPTTCNLRENQVAKPCNELQDLSESECLRHKCCFSSSGTTSFKCFAPFRDVPKQMMQMFGLGAISLILVCLPIYCRSLFWRSEPADDLQRQDNRVVTGLKKQRRKRKRKSEMLQKAARGREEHGDE | – | 55% | – | 28% | – | – | – | 8% | – | – | – | – | – | – | 0% | 0% | – | – | – | –
4 | SSX-4 (protein, UniProt O60224 1-188, looked up) Protein SSX4: MNGDDAFARRPRDDAQISEKLRKAFDDIAKYFSKKEWEKMKSSEKIVYVYMKLNYEVMTKLGFKVTLPPFMRSKRAADFHGNDFGNDRNHRNQVERPQMTFGSLQRIFPKIMPKKPAEEENGLKEVPEASGPQNDGKQLCPPGNPSTLEKINKTSGPKRGKHAWTHRLRERKQLVVYEEISDPEEDDE | 4% | 27% | 48% | – | 0% | 11% | – | 7% | 23% | 29% | 30% | 16% | 21% | 67% | – | 0% | 13% | 13% | 21% | 20%
5 | SCP-1 (protein, UniProt Q15431 1-976, looked up) Synaptonemal complex protein 1: MEKQKPFALFVPPRSSSSQVSAVKPQTLGGDSTFFKSFNKCTEDDFEFPFAKTNLSKNGENIDSDPALQKVNFLPVLEQVGNSDCHYQEGLKDSDLENSEGLSRVYSKLYKEAEKIKKWKVSTEAELRQKESKLQENRKIIEAQRKAIQELQFGNEKVSLKLEEGIQENKDLIKENNATRHLCNLLKETCARSAEKTKKYEYEREETRQVYMDLNNNIEKMITAFEELRVQAENSRLEMHFKLKEDYEKIQHLEQEYKKEINDKEKQVSLLLIQITEKENKMKDLTFLLEESRDKVNQLEEKTKLQSENLKQSIEKQHHLTKELEDIKVSLQRSVSTQKALEEDLQIATKTICQLTEEKETQMEESNKARAAHSFVVTEFETTVCSLEELLRTEQQRLEKNEDQLKILTMELQKKSSELEEMTKLTNNKEVELEELKKVLGEKETLLYENKQFEKIAEELKGTEQELIGLLQAREKEVHDLEIQLTAITTSEQYYSKEVKDLKTELENEKLKNTELTSHCNKLSLENKELTQETSDMTLELKNQQEDINNNKKQEERMLKQIENLQETETQLRNELEYVREELKQKRDEVKCKLDKSEENCNNLRKQVENKNKYIEELQQENKALKKKGTAESKQLNVYEIKVNKLELELESAKQKFGEITDTYQKEIEDKKISEENLLEEVEKAKVIADEAVKLQKEIDKRCQHKIAEMVALMEKHKHQYDKIIEERDSELGLYKSKEQEQSSLRASLEIELSNLKAELLSVKKQLEIEREEKEKLKREAKENTATLKEKKDKKTQTFLLETPEIYWKLDSKAVPSQTVSRNFTSVDHGISKDKRDYLWTSAKNTLSTPLPKAYTVKTPTKPKLQQRENLNIPIEESKKKRKMAFEFDINSDSSETTDLLSMVSEEETLKTLYRNNNPPASHLCVKTPKKAPSSLTTPGSTLKFGAIRKMREDRWAVIAKMDRKKKLKEAEKLFV | 14% | 37% | 25% | – | 0% | 2% | 6% | 2% | 14% | 12% | 11% | 39% | 16% | – | – | 8% | 1% | 15% | 31% | –
6 | TAF7L (protein, UniProt Q5H9L4 1-462, looked up) Transcription initiation …: MECPEGQLPISSENDSTPTVSTSEVTSQQEPQILVDRGSETTYESSADIAGDEGTQIPADEDTQTDADSSAQAAAQAPENFQEGKDMSESQDEVPDEVENQFILRLPLEHACTVRNLARSQSVKMKDKLKIDLLPDGRHAVVEVEDVPLAAKLVDLPCVIESLRTLDKKTFYKTADISQMLVCTADGDIHLSPEEPAASTDPNIVRKKERGREEKCVWKHGITPPLKNVRKKRFRKTQKKVPDVKEMEKSSFTEYIESPDVENEVKRLLRSDAEAVSTRWEVIAEDGTKEIESQGSIPGFLISSGMSSHKQGHTSSEYDMLREMFSDSRSNNDDDEDEDDEDEDEDEDEDEDEDKEEEEEDCSEEYLERQLQAEFIESGQYRANEGTSSIVMEIQKQIEKKEKKLHKIQNKAQRQKDLIMKVENLTLKNHFQSVLEQLELQEKQKNEKLISLQEQLQRFLKK | – | 0% | – | – | 0% | 10% | 0% | 0% | – | 10% | – | – | 21% | – | 0% | 0% | 9% | – | – | –
7 | SSX-2 (protein, UniProt Q16385 1-188, looked up) Protein SSX2: MNGDDAFARRPTVGAQIPEKIQKAFDDIAKYFSKEEWEKMKASEKIFYVYMKRKYEAMTKLGFKATLPPFMCNKRAEDFQGNDLDNDPNRGNQVERPQMTFGRLQGISPKIMPKKPAEEGNDSEEVPEASGPQNDGKELCPPGKPTTSEKIHERSGPKRGEHAWTHRLRERKQLVIYEEISDPEEDDE | 4% | 7% | 46% | – | 8% | 13% | 5% | 0% | 3% | 17% | 12% | 16% | 35% | 44% | 28% | 2% | 10% | 7% | 4% | 4%
